Measurements as given in paper PMC2868900, “Interaction between Thymidylate Synthase and Its Cognate mRNA in Zebrafish Embryos”.

Experiments:
[1] = molecular target: T1, thymidylate synthase (TS) (zebrafish, UniProt A0ACM8Q3Q5 1-318); experiment: EMSA; 100 ng TS; 37 C, 10 min; 100 ng TS (200 ng in Fig. 5B legend), 1 ng 32P TS mRNA; non-denaturing 5% acrylamide gel (60:1); binding buffer, salt and pH not given (cited ref. 16); conditions: protein: recombinant, tags: His-tag removed by thrombin, chain copies: 2, hairpin (MFold)
T1 sequence (A0ACM8Q3Q5 entry or part of it): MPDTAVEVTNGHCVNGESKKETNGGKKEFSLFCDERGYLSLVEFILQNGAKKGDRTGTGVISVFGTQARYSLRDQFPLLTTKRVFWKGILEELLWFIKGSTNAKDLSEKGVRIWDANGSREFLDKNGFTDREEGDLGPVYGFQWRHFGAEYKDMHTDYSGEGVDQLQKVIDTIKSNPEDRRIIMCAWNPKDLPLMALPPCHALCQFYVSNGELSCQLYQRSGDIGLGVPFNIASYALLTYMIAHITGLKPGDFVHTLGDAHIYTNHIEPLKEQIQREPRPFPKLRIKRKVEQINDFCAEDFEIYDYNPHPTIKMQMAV

[2] = molecular target: T1, thymidylate synthase (TS); experiment: competition EMSA; vs 32P full-length TS mRNA; 37 C, 10 min; 100 ng TS (200 ng in Fig. 5B legend), 1 ng 32P TS mRNA; non-denaturing 5% acrylamide gel (60:1); binding buffer, salt and pH not given (cited ref. 16); conditions: protein: recombinant; tags: His-tag removed by thrombin; chain copies: 2; hairpin (MFold), 6 nt loop

CUCUUGUUGUAAAGCAGGAU (structured_RNA) [Δ20-23-TS RNA (Δ20-22 in Table 1)]
binding result ([1]; 4 nt loop): no binding

CUCUUGUUGUGCUGCAGGAU (structured_RNA) [TS:N20 (TS13-32)]
IC50 [2]: 0.62 ± 0.2 nM

CUCUUCAUGUGCUGCAGGAU (structured_RNA) [Δ20-18-TS RNA]
binding result ([1]; 5 nt loop): no binding

CUCUUGUUGUGCAGGAU (structured_RNA) [Δ20-TS RNA]
binding result [1]: no binding
